Experiment in all cases: inhibition of recombinant KDM5 demethylase activity (H3K4me3 peptide); legend calls it IC50
Test [1] concerns the target T1, recombinant KDM5C (UniProt P41229 1-765).
T1 chain: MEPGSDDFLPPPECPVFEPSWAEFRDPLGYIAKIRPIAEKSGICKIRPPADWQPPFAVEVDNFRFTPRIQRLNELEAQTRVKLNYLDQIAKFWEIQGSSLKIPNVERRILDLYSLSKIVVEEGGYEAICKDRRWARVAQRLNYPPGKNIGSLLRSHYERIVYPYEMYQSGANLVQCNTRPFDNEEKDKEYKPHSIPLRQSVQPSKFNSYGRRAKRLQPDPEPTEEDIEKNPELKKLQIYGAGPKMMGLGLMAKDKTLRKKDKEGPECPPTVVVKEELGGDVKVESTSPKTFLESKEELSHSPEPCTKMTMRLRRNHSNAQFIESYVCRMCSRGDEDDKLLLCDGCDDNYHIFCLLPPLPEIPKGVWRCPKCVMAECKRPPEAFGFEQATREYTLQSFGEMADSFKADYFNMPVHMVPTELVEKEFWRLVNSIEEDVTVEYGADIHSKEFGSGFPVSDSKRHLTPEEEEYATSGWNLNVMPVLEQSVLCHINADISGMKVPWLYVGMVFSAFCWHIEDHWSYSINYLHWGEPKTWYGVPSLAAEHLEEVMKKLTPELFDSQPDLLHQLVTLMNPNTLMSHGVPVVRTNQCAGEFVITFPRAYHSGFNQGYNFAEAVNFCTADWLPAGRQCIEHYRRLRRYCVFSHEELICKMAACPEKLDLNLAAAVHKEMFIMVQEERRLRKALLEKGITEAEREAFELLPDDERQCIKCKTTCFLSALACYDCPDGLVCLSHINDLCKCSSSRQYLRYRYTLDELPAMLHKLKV

The target in test [2] is KDM5A.
Test [3] addresses KDM5B.

This note sets out measurements from patent US20220184221A1 (published 2022).

For orientation: EC50 means the concentration giving half of the maximal effect.

Where no end group is shown, it is not given here.

In the case of TEDSKTHHH (also: fluorescein label in FP assay, end not given here) [EP4], the EC50 in test [1] is 0.97 nM; in test [2], 422 nM; in test [3], 377 nM.
